The source of these data is patent US12043670B2, “Anti-BCMA antibody-drug conjugates and methods of use” (Eisai R&D Management Co., Ltd., priority 2020, dated 2024).

The labels stand for the following.
B1: AB200-R1H32-R2Vk28 (antibody)
heavy: QVQLVQSGAEVKKPGSSVKVSCKASGGTFSNYWMHWVRQAPGQGLEWMGATYRSHSDTYYNQKFKSRVTITADKSTSTAYMELSSLRSEDTAVYYCARGAIYHGYDVIDNWGQGTLVTVSSASTKGPSVFPLAPSSKSTSGGTAALGCLVKDYFPEPVTVSWNSGALTSGVHTFPAVLQSSGLYSLSSVVTVPSSSLGTQTYICNVNHKPSNTKVDKKVEPKSC
light: DIQMTQSPSSLSASVGDRVTITCRASQSISSYLNWYQQKPGKAPKLLIYATSNIQSGVPSRFSGSGSGTDFTLTISSLQPEDFATYYCQQFRKIPWTFGQGTKLEIKRTVAAPSVFIFPPSDEQLKSGTASVVCLLNNFYPREAKVQWKVDNALQSGNSQESVTEQDSKDSTYSLSSTLTLSKADYEKHKVYACEVTHQGLSSPVTKSFNRGEC
B2: AB200-R1H32-R2Vk27 (antibody)
heavy: QVQLVQSGAEVKKPGSSVKVSCKASGGTFSNYWMHWVRQAPGQGLEWMGATYRSHSDTYYNQKFKSRVTITADKSTSTAYMELSSLRSEDTAVYYCARGAIYHGYDVIDNWGQGTLVTVSSASTKGPSVFPLAPSSKSTSGGTAALGCLVKDYFPEPVTVSWNSGALTSGVHTFPAVLQSSGLYSLSSVVTVPSSSLGTQTYICNVNHKPSNTKVDKKVEPKSC
light: DIQMTQSPSSLSASVGDRVTITCRASQSISSYLNWYQQKPGKAPKLLIYATSNIQSGVPSRFSGSGSGTDFTLTISSLQPEDFATYYCQQYRKIPWSFGQGTKLEIKRTVAAPSVFIFPPSDEQLKSGTASVVCLLNNFYPREAKVQWKVDNALQSGNSQESVTEQDSKDSTYSLSSTLTLSKADYEKHKVYACEVTHQGLSSPVTKSFNRGEC
B3: AB200-R1H32-R2Vk37 (antibody)
heavy: QVQLVQSGAEVKKPGSSVKVSCKASGGTFSNYWMHWVRQAPGQGLEWMGATYRSHSDTYYNQKFKSRVTITADKSTSTAYMELSSLRSEDTAVYYCARGAIYHGYDVIDNWGQGTLVTVSSASTKGPSVFPLAPSSKSTSGGTAALGCLVKDYFPEPVTVSWNSGALTSGVHTFPAVLQSSGLYSLSSVVTVPSSSLGTQTYICNVNHKPSNTKVDKKVEPKSC
light: DIQMTQSPSSLSASVGDRVTITCRASQSISSYINWYQQKPGKAPKLLIYATSNLQSGVPSRFSGSGSGTDFTLTISSLQPEDFATYYCQQYRKIPWSFGQGTKLEIKRTVAAPSVFIFPPSDEQLKSGTASVVCLLNNFYPREAKVQWKVDNALQSGNSQESVTEQDSKDSTYSLSSTLTLSKADYEKHKVYACEVTHQGLSSPVTKSFNRGEC
B4: AB200-R1H32-R2Vk18 (antibody)
heavy: QVQLVQSGAEVKKPGSSVKVSCKASGGTFSNYWMHWVRQAPGQGLEWMGATYRSHSDTYYNQKFKSRVTITADKSTSTAYMELSSLRSEDTAVYYCARGAIYHGYDVIDNWGQGTLVTVSSASTKGPSVFPLAPSSKSTSGGTAALGCLVKDYFPEPVTVSWNSGALTSGVHTFPAVLQSSGLYSLSSVVTVPSSSLGTQTYICNVNHKPSNTKVDKKVEPKSC
light: DIQMTQSPSSLSASVGDRVTITCRASQSISSYINWYQQKPGKAPKLLIYAASSLQSGVPSRFSGSGSGTDFTLTISSLQPEDFATYYCQQFRKIPWTFGQGTKLEIKRTVAAPSVFIFPPSDEQLKSGTASVVCLLNNFYPREAKVQWKVDNALQSGNSQESVTEQDSKDSTYSLSSTLTLSKADYEKHKVYACEVTHQGLSSPVTKSFNRGEC
B5: AB200-R1H32-R2Vk39 (antibody)
heavy: QVQLVQSGAEVKKPGSSVKVSCKASGGTFSNYWMHWVRQAPGQGLEWMGATYRSHSDTYYNQKFKSRVTITADKSTSTAYMELSSLRSEDTAVYYCARGAIYHGYDVIDNWGQGTLVTVSSASTKGPSVFPLAPSSKSTSGGTAALGCLVKDYFPEPVTVSWNSGALTSGVHTFPAVLQSSGLYSLSSVVTVPSSSLGTQTYICNVNHKPSNTKVDKKVEPKSC
light: DIQMTQSPSSLSASVGDRVTITCRASQSISSYINWYQQKPGKAPKLLIYATSNIQSGVPSRFSGSGSGTDFTLTISSLQPEDFATYYCQQYRRLPWSFGQGTKLEIKRTVAAPSVFIFPPSDEQLKSGTASVVCLLNNFYPREAKVQWKVDNALQSGNSQESVTEQDSKDSTYSLSSTLTLSKADYEKHKVYACEVTHQGLSSPVTKSFNRGEC
B6: AB200-R1H32-R2Vk38 (antibody)
heavy: QVQLVQSGAEVKKPGSSVKVSCKASGGTFSNYWMHWVRQAPGQGLEWMGATYRSHSDTYYNQKFKSRVTITADKSTSTAYMELSSLRSEDTAVYYCARGAIYHGYDVIDNWGQGTLVTVSSASTKGPSVFPLAPSSKSTSGGTAALGCLVKDYFPEPVTVSWNSGALTSGVHTFPAVLQSSGLYSLSSVVTVPSSSLGTQTYICNVNHKPSNTKVDKKVEPKSC
light: DIQMTQSPSSLSASVGDRVTITCRASQSISSYINWYQQKPGKAPKLLIYATSNLQSGVPSRFSGSGSGTDFTLTISSLQPEDFATYYCQQFRKIPWTFGQGTKLEIKRTVAAPSVFIFPPSDEQLKSGTASVVCLLNNFYPREAKVQWKVDNALQSGNSQESVTEQDSKDSTYSLSSTLTLSKADYEKHKVYACEVTHQGLSSPVTKSFNRGEC
B7: AB200-R1H26-R2Vk48 (antibody)
heavy: QVQLVQSGAEVKKPGSSVKVSCKASGGSFSNYWMHWVRQAPGQGLEWMGATYRIHSDTFYNQKFKGRVTITADKSTSTAYMELSSLRSEDTAVYYCARGAIYHGYDVLDNWGQGTLVTVSSASTKGPSVFPLAPSSKSTSGGTAALGCLVKDYFPEPVTVSWNSGALTSGVHTFPAVLQSSGLYSLSSVVTVPSSSLGTQTYICNVNHKPSNTKVDKKVEPKSC
light: DIQMTQSPSSLSASVGDRVTITCRASQSISSYINWYQQKPGKAPKLLIYATSNLQIGVPSRFSGSGSGTDFTLTISSLQPEDFATYYCQQFRKIPWTFGQGTKLEIKRTVAAPSVFIFPPSDEQLKSGTASVVCLLNNFYPREAKVQWKVDNALQSGNSQESVTEQDSKDSTYSLSSTLTLSKADYEKHKVYACEVTHQGLSSPVTKSFNRGEC
B8: AB200-R1H26-R2Vk8 (antibody)
heavy: QVQLVQSGAEVKKPGSSVKVSCKASGGSFSNYWMHWVRQAPGQGLEWMGATYRIHSDTFYNQKFKGRVTITADKSTSTAYMELSSLRSEDTAVYYCARGAIYHGYDVLDNWGQGTLVTVSSASTKGPSVFPLAPSSKSTSGGTAALGCLVKDYFPEPVTVSWNSGALTSGVHTFPAVLQSSGLYSLSSVVTVPSSSLGTQTYICNVNHKPSNTKVDKKVEPKSC
light: DIQMTQSPSSLSASVGDRVTITCRASQSISSYINWYQQKPGKAPKLLIYATSNLQIGVPSRFSGSGSGTDFTLTISSLQPEDFATYYCQQFRKLPWSFGQGTKLEIKRTVAAPSVFIFPPSDEQLKSGTASVVCLLNNFYPREAKVQWKVDNALQSGNSQESVTEQDSKDSTYSLSSTLTLSKADYEKHKVYACEVTHQGLSSPVTKSFNRGEC
B9: AB200-R1H26-R2Vk6 (antibody)
heavy: QVQLVQSGAEVKKPGSSVKVSCKASGGSFSNYWMHWVRQAPGQGLEWMGATYRIHSDTFYNQKFKGRVTITADKSTSTAYMELSSLRSEDTAVYYCARGAIYHGYDVLDNWGQGTLVTVSSASTKGPSVFPLAPSSKSTSGGTAALGCLVKDYFPEPVTVSWNSGALTSGVHTFPAVLQSSGLYSLSSVVTVPSSSLGTQTYICNVNHKPSNTKVDKKVEPKSC
light: DIQMTQSPSSLSASVGDRVTITCRASQSISSYINWYQQKPGKAPKLLIYATSNLQSGVPSRFSGSGSGTDFTLTISSLQPEDFATYYCQQFRKLPWSFGQGTKLEIKRTVAAPSVFIFPPSDEQLKSGTASVVCLLNNFYPREAKVQWKVDNALQSGNSQESVTEQDSKDSTYSLSSTLTLSKADYEKHKVYACEVTHQGLSSPVTKSFNRGEC
B10: AB200-R1H26-R2Vk7 (antibody)
heavy: QVQLVQSGAEVKKPGSSVKVSCKASGGSFSNYWMHWVRQAPGQGLEWMGATYRIHSDTFYNQKFKGRVTITADKSTSTAYMELSSLRSEDTAVYYCARGAIYHGYDVLDNWGQGTLVTVSSASTKGPSVFPLAPSSKSTSGGTAALGCLVKDYFPEPVTVSWNSGALTSGVHTFPAVLQSSGLYSLSSVVTVPSSSLGTQTYICNVNHKPSNTKVDKKVEPKSC
light: DIQMTQSPSSLSASVGDRVTITCRASQSISSYINWYQQKPGKAPKLLIYATSNIQSGVPSRFSGSGSGTDFTLTISSLQPEDFATYYCQQFRKLPWSFGQGTKLEIKRTVAAPSVFIFPPSDEQLKSGTASVVCLLNNFYPREAKVQWKVDNALQSGNSQESVTEQDSKDSTYSLSSTLTLSKADYEKHKVYACEVTHQGLSSPVTKSFNRGEC
B11: AB200-R1H26-R2Vk17 (antibody)
heavy: QVQLVQSGAEVKKPGSSVKVSCKASGGSFSNYWMHWVRQAPGQGLEWMGATYRIHSDTFYNQKFKGRVTITADKSTSTAYMELSSLRSEDTAVYYCARGAIYHGYDVLDNWGQGTLVTVSSASTKGPSVFPLAPSSKSTSGGTAALGCLVKDYFPEPVTVSWNSGALTSGVHTFPAVLQSSGLYSLSSVVTVPSSSLGTQTYICNVNHKPSNTKVDKKVEPKSC
light: DIQMTQSPSSLSASVGDRVTITCRASQSISSYINWYQQKPGKAPKLLIYAASSLQSGVPSRFSGSGSGTDFTLTISSLQPEDFATYYCQQYRKIPWSFGQGTKLEIKRTVAAPSVFIFPPSDEQLKSGTASVVCLLNNFYPREAKVQWKVDNALQSGNSQESVTEQDSKDSTYSLSSTLTLSKADYEKHKVYACEVTHQGLSSPVTKSFNRGEC
B12: AB200-R1H26-R2Vk4 (antibody)
heavy: QVQLVQSGAEVKKPGSSVKVSCKASGGSFSNYWMHWVRQAPGQGLEWMGATYRIHSDTFYNQKFKGRVTITADKSTSTAYMELSSLRSEDTAVYYCARGAIYHGYDVLDNWGQGTLVTVSSASTKGPSVFPLAPSSKSTSGGTAALGCLVKDYFPEPVTVSWNSGALTSGVHTFPAVLQSSGLYSLSSVVTVPSSSLGTQTYICNVNHKPSNTKVDKKVEPKSC
light: DIQMTQSPSSLSASVGDRVTITCRASQSISSYLNWYQQKPGKAPKLLIYATSNIQSGVPSRFSGSGSGTDFTLTISSLQPEDFATYYCQQFRKLPWSFGQGTKLEIKRTVAAPSVFIFPPSDEQLKSGTASVVCLLNNFYPREAKVQWKVDNALQSGNSQESVTEQDSKDSTYSLSSTLTLSKADYEKHKVYACEVTHQGLSSPVTKSFNRGEC

A short description of one data set: ThermoFluor thermostability (Tm). Format: physicochemical. Conditions: Fab fragment; light chain clone paired with heavy chain AB200_R1_VH32. In general terms: Differential scanning fluorimetry follows unfolding on heating by fluorescence.
On to B1, for which the Tm is 79.945 °C.
B2: the Tm came out at 76.729 °C.
For B3, the Tm turned out to be 76.708 °C.
Turning to B4, the Tm worked out at 79.872 °C.
With B5, the Tm was 76.077 °C.
B6: the Tm was 80.727 °C.

Still in this data set, the particulars now being: Light chain screening Round 2; Fab, paired with heavy chain AB200_R1_VH26.
As for B7, the Tm came to 83.862 °C.
Still for that read-out and setting: then B8, with 82.921 °C; and B9, with 82.640 °C.
Still for that read-out and setting: then B10, with 81.764 °C; and B11, with 78.993 °C; and B12, with 81.832 °C.
